B1: NCRm (dsDNA)
DNA 1: AGCTTAAGTAATACGGCTATGCAAGGCA
DNA 2: TGCCTTGCATAGCCGTATTACTTAAGCT
B2: NCR (dsDNA)
DNA 1: AGCTTAAGTAACGCCATTTTGCAAGGCA
DNA 2: TGCCTTGCAAAATGGCGTTACTTAAGCT

Target: rYY1 (UniProt Q00899 1-414)
Assay: pull-down

Sequence of rYY1 (Q00899 whole entry): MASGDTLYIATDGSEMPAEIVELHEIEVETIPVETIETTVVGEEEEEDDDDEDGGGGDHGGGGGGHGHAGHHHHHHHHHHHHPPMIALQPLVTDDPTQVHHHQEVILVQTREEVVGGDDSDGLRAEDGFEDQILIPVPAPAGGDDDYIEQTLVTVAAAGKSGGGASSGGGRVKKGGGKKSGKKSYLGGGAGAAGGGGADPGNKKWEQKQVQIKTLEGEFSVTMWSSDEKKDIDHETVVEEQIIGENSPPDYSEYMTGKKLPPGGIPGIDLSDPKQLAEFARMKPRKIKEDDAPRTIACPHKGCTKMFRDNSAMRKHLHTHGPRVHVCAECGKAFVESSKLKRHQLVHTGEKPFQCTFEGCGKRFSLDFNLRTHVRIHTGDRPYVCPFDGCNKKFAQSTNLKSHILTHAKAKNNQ

Binder	binding result
B1	no binding
B2	binds

Reference: PMC8456507
